T1: human DR3 (TNFRSF25) expressed on cells (human, UniProt Q93038 25-417)
T1 sequence: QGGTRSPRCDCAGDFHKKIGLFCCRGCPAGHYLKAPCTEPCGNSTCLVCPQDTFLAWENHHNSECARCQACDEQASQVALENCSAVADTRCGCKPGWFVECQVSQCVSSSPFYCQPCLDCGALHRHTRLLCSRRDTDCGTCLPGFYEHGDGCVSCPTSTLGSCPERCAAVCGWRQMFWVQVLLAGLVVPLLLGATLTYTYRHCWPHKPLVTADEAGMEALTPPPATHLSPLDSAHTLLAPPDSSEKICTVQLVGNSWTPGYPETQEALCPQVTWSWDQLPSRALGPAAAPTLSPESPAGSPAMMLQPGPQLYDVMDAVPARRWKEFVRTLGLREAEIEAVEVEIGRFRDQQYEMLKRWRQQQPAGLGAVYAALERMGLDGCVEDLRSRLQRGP

B1: VHg5/VLg1 (antibody, human IgG1, V domains shown)
VH: QVQLQQSGGGLVQAGGSLRLSCAASGFTFTSYAMSWVRQAPGKGLEWVATISDGDSYSYFPDSVKDRFIISRDNAKNSLFLQMNSLRAEDTAVYYCARDRIYGSVQYYAMDYWGRGTLVTVSS
VL: DVVMTQSPDSLAVSLGERATINCRASESVEFSGTSLMQWYQQKPGQPPKLLIYAASNVESGVPDRFSGSGSGTDFTLTISSLQAEDVVVYYCQQSRKLPYTFGGGTKVEIK
B2: VHg5/mVL (antibody, human IgG1, V domains shown)
VH: B1 VH
VL: DIVLTQSPASLAVSLGQRATISCRASESVEFSGTSLMQWYQQRPGLPPKLLIYAASNVESGVPARFSGSGSGTDFSLNIHPVEEDDIAMYFCQQSRKLPYTFGGGTKLEIN
B3: VHg5/VLg4 (antibody, human IgG1, V domains shown)
VH: B1 VH
VL: B1 VL with N22S, G45R, P48L, V88A, G104Q, K107R, V108L
B4: VHg5/VLg6 (antibody, human IgG1, V domains shown)
VH: B1 VH
VL: DVVMTQSPPSLPVTPGEPASISCRASESVEFSGTSLMQWYLQKPGQSPQVLIYAASNVESGVPDRFSGSGSGTDFTLKISRVEAEDVGVYYCQQSRKLPYTFGQGTRLEIK
B5: VHg10/VLg13 (antibody, human IgG1, V domains shown)
VH: EVQLVESGGGLVQPGGSLRLSCAASGFTFSSYAMSWVRQAPGKGLEWVSTISDGDSYSYFPDSVKDRFTISRDNSKNTLYLQMNSLRAEDTAVYYCARDRIYGSVQYYAMDYWGQGTLVTVSS
VL: DIQMTQSPSSLSASVGDRVTITCRASESVEFSGTSLMQWYQQKPGKAPKLLIYAASNVESGVPSRFSGSGSGTDFTFTISSLQPEDIATYYCQQSRKLPYTFGQGTKLEIK
B6: VHg3/mVL (antibody, human IgG1, V domains shown)
VH: B5 VH with E6Q, Q13K, T28K, V48L, T69I, S75A, T78S, A88V, A92G
VL: B2 VL
B7: VHg9/VLg12 (antibody, human IgG1, V domains shown)
VH: B5 VH with Q13K, S75A, T78S
VL: EIVLTQSPATLSLSPGERATLSCRASESVEFSGTSLMQWYQQKPGQAPRLLIYAASNVESGIPARFSGSGSGTDFTLTISSLEPEDFAVYYCQQSRKLPYTFGQGTKLEIK
B8: VHg10/mVL (antibody, human IgG1, V domains shown)
VH: B5 VH
VL: B2 VL
B9: VHg10/VLg1 (antibody, human IgG1, V domains shown)
VH: B5 VH
VL: B1 VL
B10: VHg6/VLg6 (antibody, human IgG1, V domains shown)
VH: B1 VH with A14P, T30S, I69T, K76R, F80Y
VL: B4 VL
B11: VHg9/VLg2 (antibody, human IgG1, V domains shown)
VH: B5 VH with Q13K, S75A, T78S
VL: B5 VL with M4L, P44A, K46L, F77L, I87F, A88G, K107R
B12: VHg9/VLg5 (antibody, human IgG1, V domains shown)
VH: B5 VH with Q13K, S75A, T78S
VL: B7 VL with A9G, A19G, A64D, G72E, S81R, F87L, K107R
B13: VHg1/VLg13 (antibody, human IgG1, V domains shown)
VH: B5 VH with E1Q, E6Q, A92S
VL: B5 VL
B14: VHg1/VLg1 (antibody, human IgG1, V domains shown)
VH: B5 VH with E1Q, E6Q, A92S
VL: B1 VL
B15: VHg9/mVL (antibody, human IgG1, V domains shown)
VH: B5 VH with Q13K, S75A, T78S
VL: B2 VL
B16: VHg3/VLg1 (antibody, human IgG1, V domains shown)
VH: B5 VH with E6Q, Q13K, T28K, V48L, T69I, S75A, T78S, A88V, A92G
VL: B1 VL
B17: VHg2/VLg6 (antibody, human IgG1, V domains shown)
VH: B5 VH with E1Q, V2M, E6Q, Q13K, V37I, S75A, T78S, A97T, Q115R
VL: B4 VL
B18: VHg2/VLg1 (antibody, human IgG1, V domains shown)
VH: B5 VH with E1Q, V2M, E6Q, Q13K, V37I, S75A, T78S, A97T, Q115R
VL: B1 VL
B19: VHg1/VLg6 (antibody, human IgG1, V domains shown)
VH: B5 VH with E1Q, E6Q, A92S
VL: B4 VL
B20: VHg10/VLg2 (antibody, human IgG1, V domains shown)
VH: B5 VH
VL: B5 VL with M4L, P44A, K46L, F77L, I87F, A88G, K107R
B21: VHg9/VLg4 (antibody, human IgG1, V domains shown)
VH: B5 VH with Q13K, S75A, T78S
VL: B1 VL with N22S, G45R, P48L, V88A, G104Q, K107R, V108L
B22: VHg6/VLg5 (antibody, human IgG1, V domains shown)
VH: B1 VH with A14P, T30S, I69T, K76R, F80Y
VL: B7 VL with A9G, A19G, A64D, G72E, S81R, F87L, K107R
B23: VHg2/VLg5 (antibody, human IgG1, V domains shown)
VH: B5 VH with E1Q, V2M, E6Q, Q13K, V37I, S75A, T78S, A97T, Q115R
VL: B7 VL with A9G, A19G, A64D, G72E, S81R, F87L, K107R
B24: VHg3/VLg2 (antibody, human IgG1, V domains shown)
VH: B5 VH with E6Q, Q13K, T28K, V48L, T69I, S75A, T78S, A88V, A92G
VL: B5 VL with M4L, P44A, K46L, F77L, I87F, A88G, K107R
B25: VHg6/mVL (antibody, human IgG1, V domains shown)
VH: B1 VH with A14P, T30S, I69T, K76R, F80Y
VL: B2 VL
B26: VHg2/mVL (antibody, human IgG1, V domains shown)
VH: B5 VH with E1Q, V2M, E6Q, Q13K, V37I, S75A, T78S, A97T, Q115R
VL: B2 VL
B27: VHg9/VLg13 (antibody, human IgG1, V domains shown)
VH: B5 VH with Q13K, S75A, T78S
VL: B5 VL
B28: VHg3/VLg6 (antibody, human IgG1, V domains shown)
VH: B5 VH with E6Q, Q13K, T28K, V48L, T69I, S75A, T78S, A88V, A92G
VL: B4 VL

Residue numbers refer to the chain shown, from its start.

This assay addresses T1, human DR3 (TNFRSF25) expressed on cells. Kind of assay: cell-based or functional assay.
R347 IgG (antibody) came in with a Signal (FLU), isotype control of 385000 FLU. On to B1, for which the “Signal (FLU)” value was found to be 410000 FLU.

Consider B2, for which the “Signal (FLU)” value came out at 2.69e+06 FLU. Still for that read-out and setting: the value for B3 was 1.44e+06 FLU; that for B4 was 387000 FLU; that for B5 was 3.27e+06 FLU. The same measure, in the same setting: the value for B6 was 2.86e+06 FLU; that for B7 was 682000 FLU. As to B8, the “Signal (FLU)” value turned out to be 3.2e+06 FLU. On to B9, for which the “Signal (FLU)” value was 2.54e+06 FLU. As for B10, the “Signal (FLU)” value is 1.96e+06 FLU. Same read-out and setting: for B11 the value was 2.88e+06 FLU; for B12, 3.05e+06 FLU.

In the case of B13, the “Signal (FLU)” value was found to be 2.81e+06 FLU. Same read-out and setting: for B14 the value was 797000 FLU. As to B15, the “Signal (FLU)” value came out at 3.35e+06 FLU. As for B16, the “Signal (FLU)” value is 2.46e+06 FLU. Take B17: the “Signal (FLU)” value stood at 1.62e+06 FLU. With B18, the “Signal (FLU)” value is 402000 FLU. Still for that read-out and setting: the value for B19 was 1.5e+06 FLU; that for B20 was 2.84e+06 FLU. In the case of B21, the “Signal (FLU)” value is 2.96e+06 FLU. Turning to B22, the “Signal (FLU)” value came to 2.85e+06 FLU. Consider B23, for which the “Signal (FLU)” value stood at 2.52e+06 FLU.

For the molecule B24, the “Signal (FLU)” value came to 2.23e+06 FLU.

As for B25, the “Signal (FLU)” value is 2.6e+06 FLU. On the same count and under the same terms, the value for B26 was 2.57e+06 FLU. Still for that read-out and setting: the value for B27 was 3.33e+06 FLU.

With B28, the “Signal (FLU)” value turned out to be 2.05e+06 FLU.

For the origin of these results see WO2025083273A1 (dated 2025).
